Test results as given in doi:10.1101/2024.10.25.620210, “The plastid-encoded RNA polymerase structures a logistic chain for light-induced photosynthesis” (bioRxiv, 2024).

Target: T1, β’’ subunit of the Sinapis alba plastid-encoded RNA polymerase (SaPEP) (Sinapis alba, UniProt Q9THV5 1-1384)
T1 construct: source: native, in the PEP purified from Sinapis alba cotyledon chloroplasts (heparin, MonoQ, Superose 6)
T1 sequence (looked up): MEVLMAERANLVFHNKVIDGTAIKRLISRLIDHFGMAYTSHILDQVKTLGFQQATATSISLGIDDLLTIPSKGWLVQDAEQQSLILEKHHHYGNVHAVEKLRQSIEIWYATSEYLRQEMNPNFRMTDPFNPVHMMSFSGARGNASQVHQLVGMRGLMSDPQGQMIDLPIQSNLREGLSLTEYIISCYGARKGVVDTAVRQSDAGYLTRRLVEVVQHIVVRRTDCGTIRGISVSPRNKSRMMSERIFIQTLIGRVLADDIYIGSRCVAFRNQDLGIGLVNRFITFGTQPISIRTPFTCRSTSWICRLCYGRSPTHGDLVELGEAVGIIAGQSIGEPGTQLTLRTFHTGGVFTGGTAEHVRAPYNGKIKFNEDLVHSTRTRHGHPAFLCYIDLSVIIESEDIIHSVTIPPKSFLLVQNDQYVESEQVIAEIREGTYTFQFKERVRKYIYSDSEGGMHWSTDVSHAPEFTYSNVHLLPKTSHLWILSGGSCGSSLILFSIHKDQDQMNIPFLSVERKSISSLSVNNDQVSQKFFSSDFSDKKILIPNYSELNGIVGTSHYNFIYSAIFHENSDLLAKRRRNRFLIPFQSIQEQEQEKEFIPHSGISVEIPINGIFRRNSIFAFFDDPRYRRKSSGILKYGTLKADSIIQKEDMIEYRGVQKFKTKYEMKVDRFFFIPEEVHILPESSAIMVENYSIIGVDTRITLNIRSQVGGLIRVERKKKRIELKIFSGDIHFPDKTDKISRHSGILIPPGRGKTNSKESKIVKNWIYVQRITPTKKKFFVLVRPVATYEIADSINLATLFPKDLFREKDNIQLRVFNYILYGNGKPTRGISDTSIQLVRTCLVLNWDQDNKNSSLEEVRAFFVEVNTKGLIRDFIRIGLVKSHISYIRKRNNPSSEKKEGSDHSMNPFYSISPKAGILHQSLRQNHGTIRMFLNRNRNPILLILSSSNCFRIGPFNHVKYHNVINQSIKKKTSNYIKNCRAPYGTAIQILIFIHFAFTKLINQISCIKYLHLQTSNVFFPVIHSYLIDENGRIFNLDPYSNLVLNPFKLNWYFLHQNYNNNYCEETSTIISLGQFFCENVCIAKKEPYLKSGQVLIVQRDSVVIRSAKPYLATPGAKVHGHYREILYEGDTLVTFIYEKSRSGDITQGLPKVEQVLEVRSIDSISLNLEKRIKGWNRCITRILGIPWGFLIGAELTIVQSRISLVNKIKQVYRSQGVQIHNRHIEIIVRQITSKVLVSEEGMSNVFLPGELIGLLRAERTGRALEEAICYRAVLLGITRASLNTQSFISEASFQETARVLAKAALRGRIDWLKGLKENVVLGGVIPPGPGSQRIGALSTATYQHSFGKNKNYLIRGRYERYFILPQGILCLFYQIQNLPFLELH
Experiment: cryo-EM structure; native 21-subunit SaPEP purified from S. alba cotyledon chloroplasts; graphene oxide grids; consensus map 3.0 Å, multibody and composite maps; open conformation
Conditions: both partners purified

binding result: binds
B1: β subunit of the Sinapis alba plastid-encoded RNA polymerase (SaPEP) (natural protein, UniProt P46818 1-1078, looked up)
chain: MINAKKMLGDGKEGTSTIPGFNQIQFEGFYRFIDQGLIEELSKFPKIEDIDHEIEFQLFVETYQLVEPLIKERDAVYESLTYSSELYVSAGLIWKTNRNMQEQRIFIGNIPLMNSLGTSIVNGIYRVVINQILQSPGIYYQSELDHNGISVYTGTIISDWGGRLELEIDKKARIWARVSRKQKISILVLSSAMGSNLREILENVCYPEIFLSFLTDKEKKKIGSKENAILEFYQQFSCVGGDPIFSESLCKELQKKFFHQRCELGRIGRRNINWRLNLNIPQNNIFLLPRDILAAADHLIGMKFGMGTLDDMNHLKNKRIRSVADLLQDQLGLALARLENVVKGTIGGAIRHKLIPPTQNLVTSTPLTTTYESFFGFHPLSQVLDRTNPLTQIVHGRKLSYLGPGGLTGRTANFRIRDIHPSHYGRICPIDTSEGINVGLIGSLSIHARIGDWGSLESPFYELVEKSKKAQIRMLFLSPSQDEYYMIAAGNSLALNRGIQEEQVVPARYRQEFLTIAWEEVHLRSIFPFQYFSIGASLIPFIEHNDANRALMSSNMQRQAVPLSRSEKCIVGTGLERQVALDSGVPAIAEHEGKILYTDTEKIILSGNENTLSIPLIMYQRSNKNTCMHQKPQVPRGKCIKKGQILADGAATVGGELALGKNVLVAYMPWEGYNFEDAVLISECLVYGDIYTSFHIRKYEIQTHVTTQGPERITKEIPHLEGRLLRNLDKNGIVMLGSWVETGDILVGKLTPQVAKESSYAPEDRLLRAILGIQVSTSKETCLKLPIGGRGRVIDVRWVQKKGGSSYNPEIIRVYISQKREIKVGDKVAGRHGNKGIISKILPRQDMPYLQDGRPVDMVFNPLGVPSRMNVGQIFECSLGLAGSLLDRHYRIAPFDERYEQEASRKLVFSELYEASKQTANPWVFEPEYPGKSRIFDGRTGDPFEQPVIIGKPYILKLIHQVDDKIHGRSSGHYALVTQQPLRGRSKQGGQRVGEMEVWALEGFGVAHILQEMLTYKSDHIRARQEVLGTTIIGGTIPKPEDAPESFRLLVRELRSLALELNHFLVSEKNFQINRKEV
notes: plastid-encoded β subunit of the S. alba PEP catalytic core; source: native, in the PEP purified from Sinapis alba cotyledon chloroplasts (heparin, MonoQ, Superose 6)
